Data published in the RNAGym collection of RNA variant scans (doi:10.7554/elife.80360).

B1: Hairpin Ribozyme (parent)
chain: GUCCUCUUUCACGUGCGCGUGAAAGAGAGAAGUGAACCAGAGAAACACACGUUGUGGUAUAUUACCUGGUA

Variants of: B1
Experiment: self-cleavage, relative activity (ratio to wild type); higher = more cleavage; co-transcriptional

Variant	self-cleavage
GUCCUCUUUCACGUGCGCGUGAAAGAGAGAAGUGAACCAGAGAAACACACGUUGUGGUAUAUUUCCUGGGA [A64U U70G]	0.155
GUCCUCUUUCACGUGCGCGUGAAAGAGAGAAGUGAACCAGAGAAACACACGUUGUGGUAUAUUCCCUUGUA [A64C G68U]	0.26
GUCCUCUUUCACGUGCGCGUGAAAGAGAGAAGUGAACCAGAGAAACACACGUUGUGGUAUAUUCCCUAGUA [A64C G68A]	0.18
GUCCUCUUUCACGUGCGCGUGAAAGAGAGAAGUGAACCAGAGAAACACACGUUGUGGUAUAUUUCCUGGUG [A64U A71G]	0.311
GUCCUCUUUCACGUGCGCGUGAAAGAGAGAAGUGAACCAGAGAAACACACGUUGUGGUAUAUGACCCGGUA [U63G U67C]	0.149
GUCCUCUUUCACGUGCGCGUGAAAGAGAGAAGUGAACCAGAGAAACACACGUUGUGGUAUAUUGCCUGGUU [A64G A71U]	0.287
GUCCUCUUUCACGUGCGCGUGAAAGAGAGAAGUGAACCAGAGAAACACACGUUGUGGUAUAUUGCCUGGUG [A64G A71G]	0.554
GUCCUCUUUCACGUGCGCGUGAAAGAGAGAAGUGAACCAGAGAAACACACGUUGUGGUAUAUUGCCUGGUC [A64G A71C]	0.76
GUCCUCUUUCACGUGCGCGUGAAAGAGAGAAGUGAACCAGAGAAACACACGUUGUGGUAUAUUAGCUCGUA [C65G G68C]	0.151
GUCCUCUUUCACGUGCGCGUGAAAGAGAGAAGUGAACCAGAGAAACACACGUUGUGGUAUAUUACCAGAUA [U67A G69A]	0.116
GUCCUCUUUCACGUGCGCGUGAAAGAGAGAAGUGAACCAGAGAAACACACGUUGUGGUAUAUUAGGUGGUA [C65G C66G]	0.178
GUCCUCUUUCACGUGCGCGUGAAAGAGAGAAGUGAACCAGAGAAACACACGUUGUGGUAUAUUAGUUGGUA [C65G C66U]	0.429
GUCCUCUUUCACGUGCGCGUGAAAGAGAGAAGUGAACCAGAGAAACACACGUUGUGGUAUAUGGCCUGGUA [U63G A64G]	0.134
GUCCUCUUUCACGUGCGCGUGAAAGAGAGAAGUGAACCAGAGAAACACACGUUGUGGUAUAUUAACGGGUA [C65A U67G]	0.197
GUCCUCUUUCACGUGCGCGUGAAAGAGAGAAGUGAACCAGAGAAACACACGUUGUGGUAUAUAACCUGGAA [U63A U70A]	0.0404
GUCCUCUUUCACGUGCGCGUGAAAGAGAGAAGUGAACCAGAGAAACACACGUUGUGGUAUAUUACUCGGUA [C66U U67C]	0.326
GUCCUCUUUCACGUGCGCGUGAAAGAGAGAAGUGAACCAGAGAAACACACGUUGUGGUAUAUAACCUAGUA [U63A G68A]	0.276
GUCCUCUUUCACGUGCGCGUGAAAGAGAGAAGUGAACCAGAGAAACACACGUUGUGGUAUAUAACCUCGUA [U63A G68C]	0.225
GUCCUCUUUCACGUGCGCGUGAAAGAGAGAAGUGAACCAGAGAAACACACGUUGUGGUAUAUAACCUUGUA [U63A G68U]	0.225
GUCCUCUUUCACGUGCGCGUGAAAGAGAGAAGUGAACCAGAGAAACACACGUUGUGGUAUAUUUCCUAGUA [A64U G68A]	0.173
GUCCUCUUUCACGUGCGCGUGAAAGAGAGAAGUGAACCAGAGAAACACACGUUGUGGUAUAUUACAGGGUA [C66A U67G]	0.091
GUCCUCUUUCACGUGCGCGUGAAAGAGAGAAGUGAACCAGAGAAACACACGUUGUGGUAUAUUACAUUGUA [C66A G68U]	0.105
GUCCUCUUUCACGUGCGCGUGAAAGAGAGAAGUGAACCAGAGAAACACACGUUGUGGUAUAUUACAUCGUA [C66A G68C]	0.161
GUCCUCUUUCACGUGCGCGUGAAAGAGAGAAGUGAACCAGAGAAACACACGUUGUGGUAUAUUAACUGAUA [C65A G69A]	0.169
GUCCUCUUUCACGUGCGCGUGAAAGAGAGAAGUGAACCAGAGAAACACACGUUGUGGUAUAUUAAAUGGUA [C65A C66A]	0.15
GUCCUCUUUCACGUGCGCGUGAAAGAGAGAAGUGAACCAGAGAAACACACGUUGUGGUAUAUUCCCCGGUA [A64C U67C]	0.151

Variant	self-cleavage
GUCCUCUUUCACGUGCGCGUGAAAGAGAGAAGUGAACCAGAGAAACACACGUUGUGGUAUAUUGCCUAGUA [A64G G68A]	0.226
GUCCUCUUUCACGUGCGCGUGAAAGAGAGAAGUGAACCAGAGAAACACACGUUGUGGUAUAUUACCAGGUC [U67A A71C]	0.381
GUCCUCUUUCACGUGCGCGUGAAAGAGAGAAGUGAACCAGAGAAACACACGUUGUGGUAUAUUACUUGGUC [C66U A71C]	0.757
GUCCUCUUUCACGUGCGCGUGAAAGAGAGAAGUGAACCAGAGAAACACACGUUGUGGUAUAUAACGUGGUA [U63A C66G]	0.0954
GUCCUCUUUCACGUGCGCGUGAAAGAGAGAAGUGAACCAGAGAAACACACGUUGUGGUAUAUUAUCUGGUU [C65U A71U]	0.441
GUCCUCUUUCACGUGCGCGUGAAAGAGAGAAGUGAACCAGAGAAACACACGUUGUGGUAUAUUGCCGGGUA [A64G U67G]	0.159
GUCCUCUUUCACGUGCGCGUGAAAGAGAGAAGUGAACCAGAGAAACACACGUUGUGGUAUAUUGCCCGGUA [A64G U67C]	0.122
GUCCUCUUUCACGUGCGCGUGAAAGAGAGAAGUGAACCAGAGAAACACACGUUGUGGUAUAUUGCCAGGUA [A64G U67A]	0.0458
GUCCUCUUUCACGUGCGCGUGAAAGAGAGAAGUGAACCAGAGAAACACACGUUGUGGUAUAUCACCUGAUA [U63C G69A]	0.216
GUCCUCUUUCACGUGCGCGUGAAAGAGAGAAGUGAACCAGAGAAACACACGUUGUGGUAUAUUACAUGAUA [C66A G69A]	0.268
GUCCUCUUUCACGUGCGCGUGAAAGAGAGAAGUGAACCAGAGAAACACACGUUGUGGUAUAUUAUUUGGUA [C65U C66U]	0.185
GUCCUCUUUCACGUGCGCGUGAAAGAGAGAAGUGAACCAGAGAAACACACGUUGUGGUAUAUUAUAUGGUA [C65U C66A]	0.172
GUCCUCUUUCACGUGCGCGUGAAAGAGAGAAGUGAACCAGAGAAACACACGUUGUGGUAUAUCACCUGGUU [U63C A71U]	0.191
GUCCUCUUUCACGUGCGCGUGAAAGAGAGAAGUGAACCAGAGAAACACACGUUGUGGUAUAUCACCUGGUG [U63C A71G]	0.328
GUCCUCUUUCACGUGCGCGUGAAAGAGAGAAGUGAACCAGAGAAACACACGUUGUGGUAUAUUCUCUGGUA [A64C C65U]	0.223
GUCCUCUUUCACGUGCGCGUGAAAGAGAGAAGUGAACCAGAGAAACACACGUUGUGGUAUAUUCACUGGUA [A64C C65A]	0.186
GUCCUCUUUCACGUGCGCGUGAAAGAGAGAAGUGAACCAGAGAAACACACGUUGUGGUAUAUUAUCCGGUA [C65U U67C]	0.209
GUCCUCUUUCACGUGCGCGUGAAAGAGAGAAGUGAACCAGAGAAACACACGUUGUGGUAUAUUAUCGGGUA [C65U U67G]	0.229
GUCCUCUUUCACGUGCGCGUGAAAGAGAGAAGUGAACCAGAGAAACACACGUUGUGGUAUAUUAGCCGGUA [C65G U67C]	0.183
GUCCUCUUUCACGUGCGCGUGAAAGAGAGAAGUGAACCAGAGAAACACACGUUGUGGUAUAUGAUCUGGUA [U63G C65U]	0.11
GUCCUCUUUCACGUGCGCGUGAAAGAGAGAAGUGAACCAGAGAAACACACGUUGUGGUAUAUUACGGGGUA [C66G U67G]	0.211
GUCCUCUUUCACGUGCGCGUGAAAGAGAGAAGUGAACCAGAGAAACACACGUUGUGGUAUAUUCCCUGGUC [A64C A71C]	0.28
GUCCUCUUUCACGUGCGCGUGAAAGAGAGAAGUGAACCAGAGAAACACACGUUGUGGUAUAUUACCAGGGA [U67A U70G]	0.186
GUCCUCUUUCACGUGCGCGUGAAAGAGAGAAGUGAACCAGAGAAACACACGUUGUGGUAUAUUACCAGGAA [U67A U70A]	0.237
GUCCUCUUUCACGUGCGCGUGAAAGAGAGAAGUGAACCAGAGAAACACACGUUGUGGUAUAUUACCAUGUA [U67A G68U]	0.128
GUCCUCUUUCACGUGCGCGUGAAAGAGAGAAGUGAACCAGAGAAACACACGUUGUGGUAUAUUACCACGUA [U67A G68C]	0.157

Variant	self-cleavage
GUCCUCUUUCACGUGCGCGUGAAAGAGAGAAGUGAACCAGAGAAACACACGUUGUGGUAUAUUACCAAGUA [U67A G68A]	0.115
GUCCUCUUUCACGUGCGCGUGAAAGAGAGAAGUGAACCAGAGAAACACACGUUGUGGUAUAUCACCUAGUA [U63C G68A]	0.192
GUCCUCUUUCACGUGCGCGUGAAAGAGAGAAGUGAACCAGAGAAACACACGUUGUGGUAUAUCACCUCGUA [U63C G68C]	0.133
GUCCUCUUUCACGUGCGCGUGAAAGAGAGAAGUGAACCAGAGAAACACACGUUGUGGUAUAUCACCUGGAA [U63C U70A]	0.189
GUCCUCUUUCACGUGCGCGUGAAAGAGAGAAGUGAACCAGAGAAACACACGUUGUGGUAUAUGACCUCGUA [U63G G68C]	0.169
GUCCUCUUUCACGUGCGCGUGAAAGAGAGAAGUGAACCAGAGAAACACACGUUGUGGUAUAUUACCCGGUU [U67C A71U]	0.224
GUCCUCUUUCACGUGCGCGUGAAAGAGAGAAGUGAACCAGAGAAACACACGUUGUGGUAUAUUCCCUGGCA [A64C U70C]	0.0963
GUCCUCUUUCACGUGCGCGUGAAAGAGAGAAGUGAACCAGAGAAACACACGUUGUGGUAUAUAACCUGCUA [U63A G69C]	0.0966
GUCCUCUUUCACGUGCGCGUGAAAGAGAGAAGUGAACCAGAGAAACACACGUUGUGGUAUAUCAUCUGGUA [U63C C65U]	0.131
GUCCUCUUUCACGUGCGCGUGAAAGAGAGAAGUGAACCAGAGAAACACACGUUGUGGUAUAUCAACUGGUA [U63C C65A]	0.106
GUCCUCUUUCACGUGCGCGUGAAAGAGAGAAGUGAACCAGAGAAACACACGUUGUGGUAUAUUAACUAGUA [C65A G68A]	0.378
GUCCUCUUUCACGUGCGCGUGAAAGAGAGAAGUGAACCAGAGAAACACACGUUGUGGUAUAUUAUCUGUUA [C65U G69U]	0.279
GUCCUCUUUCACGUGCGCGUGAAAGAGAGAAGUGAACCAGAGAAACACACGUUGUGGUAUAUUAUCUUGUA [C65U G68U]	0.327
GUCCUCUUUCACGUGCGCGUGAAAGAGAGAAGUGAACCAGAGAAACACACGUUGUGGUAUAUUAUCUCGUA [C65U G68C]	0.108
GUCCUCUUUCACGUGCGCGUGAAAGAGAGAAGUGAACCAGAGAAACACACGUUGUGGUAUAUUACUUGUUA [C66U G69U]	0.187
GUCCUCUUUCACGUGCGCGUGAAAGAGAGAAGUGAACCAGAGAAACACACGUUGUGGUAUAUUACUUGAUA [C66U G69A]	0.216
GUCCUCUUUCACGUGCGCGUGAAAGAGAGAAGUGAACCAGAGAAACACACGUUGUGGUAUAUUACUUGCUA [C66U G69C]	0.198
GUCCUCUUUCACGUGCGCGUGAAAGAGAGAAGUGAACCAGAGAAACACACGUUGUGGUAUAUCUCCUGGUA [U63C A64U]	0.185
GUCCUCUUUCACGUGCGCGUGAAAGAGAGAAGUGAACCAGAGAAACACACGUUGUGGUAUAUUAGCUGAUA [C65G G69A]	0.138
GUCCUCUUUCACGUGCGCGUGAAAGAGAGAAGUGAACCAGAGAAACACACGUUGUGGUAUAUUCCCUGCUA [A64C G69C]	0.129
GUCCUCUUUCACGUGCGCGUGAAAGAGAGAAGUGAACCAGAGAAACACACGUUGUGGUAUAUUUCCAGGUA [A64U U67A]	0.206
GUCCUCUUUCACGUGCGCGUGAAAGAGAGAAGUGAACCAGAGAAACACACGUUGUGGUAUAUCACCUGGUA [U63C]	0.186
GUCCUCUUUCACGUGCGCGUGAAAGAGAGAAGUGAACCAGAGAAACACACGUUGUGGUAUAUGACCUGGUA [U63G]	0.171
GUCCUCUUUCACGUGCGCGUGAAAGAGAGAAGUGAACCAGAGAAACACACGUUGUGGUAUAUUUCCUGCUA [A64U G69C]	0.259
